Assay results: PMC12145829, “The maternal vGluT2 and embryonic mGluR3 signaling relay system controls offspring wing dimorphism in pea aphid”

Key:
MBP-ApFoxO DBD [1] = target: T1, MBP-ApFoxO DBD (Acyrthosiphon pisum, UniProt A0A8R1VZ87 89-178); experiment: EMSA; 0.5 and 5 ug protein; concentration-dependent shift; EMSA: room temperature, 30 min; 6% native PAGE in 0.5x TBE, 60 V, 4 C; binding buffer, salt and pH not stated; details: protein: recombinant; tags: N-terminal MBP (pMAL-c2x); label: 5' biotin
T1 sequence (A0A8R1VZ87 entry or part of it): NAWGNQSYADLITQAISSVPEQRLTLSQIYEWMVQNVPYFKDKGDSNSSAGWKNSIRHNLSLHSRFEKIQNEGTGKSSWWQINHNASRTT

MBP-ApFoxO DBD [2] = target: T1, MBP-ApFoxO DBD; experiment: competition; 5x and 25x unlabeled probe vs labeled FRE2; shift greatly reduced; EMSA: room temperature, 30 min; 6% native PAGE in 0.5x TBE, 60 V, 4 C; binding buffer, salt and pH not stated; details: protein: recombinant; tags: N-terminal MBP (pMAL-c2x)
MBP-ApFoxO DBD [3] = target: T1, MBP-ApFoxO DBD; experiment: EMSA; 0.5 ug protein, 5x labeled mutant probe; EMSA: room temperature, 30 min; 6% native PAGE in 0.5x TBE, 60 V, 4 C; binding buffer, salt and pH not stated; details: protein: recombinant; tags: N-terminal MBP (pMAL-c2x); label: 5' biotin
MBP-ApFoxO DBD [4] = target: T1, MBP-ApFoxO DBD; experiment: EMSA; 0.5 and 5 ug protein; EMSA: room temperature, 30 min; 6% native PAGE in 0.5x TBE, 60 V, 4 C; binding buffer, salt and pH not stated; details: protein: recombinant; tags: N-terminal MBP (pMAL-c2x); label: 5' biotin

B1: ApHh promoter FRE2 probe (dsDNA)
DNA 1: GATATAGTTTACATGTTTACATGACGGCAGAGA
DNA 2: TCTCTGCCGTCATGTAAACATGTAAACTATATC
MBP-ApFoxO DBD [1]
  binding result: binds

B2: FRE2 unlabeled competitor (dsDNA)
DNA 1: B1 DNA 1
DNA 2: B1 DNA 2
MBP-ApFoxO DBD [2]
  binding result: binds

B3: FRE2 mutant (FRE_m) (dsDNA)
DNA 1: GATATAGTTTACACACCCGTATGACGGCAGAGA
DNA 2: TCTCTGCCGTCATACGGGTGTGTAAACTATATC
MBP-ApFoxO DBD [3]
  binding result: no binding

B4: ApHh promoter FRE1 probe (dsDNA)
DNA 1: TTGACTGTAGTATGTAAACATTTCTGAACTCCA
DNA 2: TGGAGTTCAGAAATGTTTACATACTACAGTCAA
MBP-ApFoxO DBD [4]
  binding result: no binding
